Results taken from publication doi:10.1101/2020.06.17.157404.

Tests used:
[1] = target: CFP:MtRH10 (Medicago truncatula); assay: FRET or BRET
[2] = target: RPL7:CFP (Medicago truncatula); assay: FRET or BRET

mean CFP lifetime of the donor with the acceptor (2.86 ns +/- 0.02 without) [1]: 2.53 ns
mean CFP lifetime of the donor with the acceptor (2.83 ns +/- 0.03 without) [2]: 2.46 ns
Substance: AeSSP1256:YFP (natural protein)
